Laboratory results: IntAct's records for PubMed 29039417

B1: BBSome-interacting protein 1 (Homo sapiens), A8MTZ0 (parent)
chain: MLKAAAKRPELSGKNTISNNSDMAEVKSMFREVLPKQGPLFVEDIMTMVLCKPKLLPLKSLTLEKLEKMHQAAQNTIRQQEMAEKDQRQITH
partner: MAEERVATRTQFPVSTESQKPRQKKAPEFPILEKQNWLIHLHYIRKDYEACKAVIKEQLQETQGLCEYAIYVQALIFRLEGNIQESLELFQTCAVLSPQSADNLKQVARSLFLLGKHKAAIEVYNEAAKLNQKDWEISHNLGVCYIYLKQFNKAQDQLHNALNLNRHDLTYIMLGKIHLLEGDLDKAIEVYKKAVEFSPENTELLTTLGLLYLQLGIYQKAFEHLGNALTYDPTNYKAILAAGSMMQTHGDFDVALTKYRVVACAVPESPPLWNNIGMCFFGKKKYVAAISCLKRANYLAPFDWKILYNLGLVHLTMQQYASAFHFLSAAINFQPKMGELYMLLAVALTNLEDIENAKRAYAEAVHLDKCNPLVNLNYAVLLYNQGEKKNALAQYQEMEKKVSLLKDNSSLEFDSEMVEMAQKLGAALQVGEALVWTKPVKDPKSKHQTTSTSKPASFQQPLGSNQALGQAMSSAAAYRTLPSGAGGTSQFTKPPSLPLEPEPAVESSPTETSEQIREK

Variants of: B1
Conditions: with bbs4_human BBS4, Q96RK4

Variant | effect of a mutation on the interaction
K36E | with no effect
K36A | with no effect
K36Y | disrupting interaction strength
K36P | disrupting interaction strength
G13E | with no effect
G13K | with no effect
G13A | with no effect
K7E | with no effect
K7A | with no effect
N15K | with no effect
N15E | with no effect
N15A | with no effect
R31E | with no effect
R31K | with no effect
R31A | with no effect
E32K | disrupting interaction strength
E32A | with no effect
V33K | with no effect
V33E | with no effect
V33A | with no effect
D22A | with no effect
D22E | with no effect
D22K | with no effect
S12E | with no effect
S12A | with no effect

Variant | effect of a mutation on the interaction
S12K | with no effect
S28K | with no effect
S28A | with no effect
S28E | with no effect
E25A | with no effect
E25K | with no effect
S21A | with no effect
S21E | with no effect
S21K | with no effect
S18E | with no effect
S18A | with no effect
S18K | with no effect
F30K | with no effect
F30A | with no effect
F30S | disrupting interaction strength
F30E | with no effect
K27A | with no effect
K27E | with no effect
K27S | disrupting interaction strength
K27L | disrupting interaction strength
K27Y | disrupting interaction strength
V26A | with no effect
V26E | with no effect
V26K | with no effect
E10A | with no effect

Variant | effect of a mutation on the interaction
E10K | with no effect
K3E | with no effect
K3A | with no effect
N19K | with no effect
N19E | with no effect
N19A | with no effect
L40A | with no effect
L40E | with no effect
M23K | with no effect
M23A | with no effect
M23E | with no effect
N20A | with no effect
N20E | with no effect
N20K | with no effect
P39K | with no effect
P39E | with no effect
P39A | with no effect
K14A | with no effect
K14E | with no effect
K14L | disrupting interaction strength
I17E | with no effect
I17K | with no effect
I17A | with no effect
L11K | with no effect
L11A | with no effect

Variant | effect of a mutation on the interaction
L11E | with no effect
M29A | with no effect
M29E | with no effect
M29F | disrupting interaction strength
M29K | with no effect
Q37A | with no effect
Q37E | with no effect
Q37K | with no effect
G38K | with no effect
G38A | with no effect
G38E | with no effect
A4E | with no effect
A4K | with no effect
P35T | disrupting interaction strength
P35A | with no effect
P35K | with no effect
P35S | disrupting interaction strength
P35R | disrupting interaction strength
P35E | with no effect
R8E | with no effect
R8K | with no effect
R8A | with no effect
L2A | with no effect
L2E | with no effect
L2K | with no effect

Variant | effect of a mutation on the interaction
M1K | with no effect
M1A | with no effect
M1E | with no effect
T16E | with no effect
T16A | with no effect
T16K | with no effect
A24E | with no effect
A24K | with no effect
L34D | disrupting interaction strength
L34A | disrupting interaction strength
L34R | disrupting interaction strength
L34E | with no effect
L34K | with no effect
L34P | disrupting interaction strength
L34H | disrupting interaction strength
P9A | with no effect
P9K | with no effect
P9E | with no effect
A6K | with no effect
A6E | with no effect
A5K | with no effect
A5E | with no effect

More lines, now with the values ahead:

effect of a mutation on the interaction | Variant
disrupting interaction strength | T47R
with no effect | T47A
with no effect | T47K
with no effect | T47E
with no effect | P53K
with no effect | P53E
with no effect | P53A
with no effect | V49K
with no effect | V49A
with no effect | V49E
disrupting interaction strength | L56F
with no effect | L56E
with no effect | L56A
with no effect | K54E
disrupting interaction strength | K54T
disrupting interaction strength | K54Y
with no effect | K54A
with no effect | E43K
with no effect | E43A
with no effect | M46A
disrupting interaction strength | M46F
with no effect | M46K
with no effect | M46E
with no effect | L55K
with no effect | L55A
with no effect | L55E
with no effect | L50K

effect of a mutation on the interaction | Variant
with no effect | L50E
with no effect | L50A
with no effect | I45E
with no effect | I45A
with no effect | I45K
with no effect | D44E
with no effect | D44K
with no effect | D44A
with no effect | F41E
with no effect | F41A
with no effect | F41K
with no effect | L40K
with no effect | M48K
with no effect | M48A
with no effect | M48E
with no effect | V42E
with no effect | V42K
with no effect | V42A
disrupting interaction strength | C51S
with no effect | C51A
with no effect | C51K
with no effect | C51E
disrupting interaction strength | K52I
with no effect | K52A
with no effect | K52E
disrupting interaction strength | K52Y
